The data set can be described thus: label from the status in PepcDB records.

Take “MRNLTFLTRCKPLAASVLALMLLGGAAKSFANNDLPDLGTAAVNTFSLEKEMIYGDAYMRVIRSSAPMLNDPVLSQYLTELGNKLVAHATGVKTPFYFFLLQNDEINAFAFFGGHVAVHTGLFLNADNESELASVLGHEITHVTQRHLARSLEAQQKTGPATVAGLLGAILLTIAVPQAGMAALATTQAMATQSKINYTRLHEKEADRIGMQILVDAGFDPNASAEFFGKLASRYRFTTTPPQMLLTHPLPESRISEARDRAQQYPHRYVPDNLNFQLAKARIQVRFSSFSDDAVLSMFEKQLNKQTYGFKEAALYGKALALFRLKKFDESEKIVDELLKIDDNNLFYIDTKTDLLNERKDYAQAIKLLEAQRNLKPTSQVINANLANIYIEAGEPAKAIPLLEDMIFLDKQNQLPYQLLNLAYKKLGNPGMEYFSNAELMALGANYKGAIDQLNFAYRASEGNQLQLARIEARIRQFKQADREMDALKLEHHHHHH”: the protein production entry is “failed”.

Consider “MRNSKSLKLTIMGIGIALNIIGAFIALNLRLPIYLDSIGTIMVGFVLGPVYGMATGVLGSVVSGITFDIYSLYFAPVQIFTGFFAGYFYEKGLMKGKKLFLSVFVMTLFVSFTGACLTAYIFGGITSSGSSYIIVILNNLGVNPVVSAFITQFLTDYCDKLVAVLIMLQVVVRLPKNILLRVQNN”, for which the protein production entry is on record as “failed”.

Consider “MRPEHIPNIISTLRIFLVYPVVHLMLAERYTAALALFVVAGVSDAIDGFLAKHYGWQSRLGSYLDPLADKLLLVCCFVAGAWLGLLPVWMAAAVLLRDAVIVTGAIAYYLLLHPFDGQPILASKLNTLLQLAFIVAILFNRGVSELPPFLLDGLLAATLATTIASGAIYVYVWGRNYRLETAQGRR”, for which the protein production entry was “failed”. For “MRPEIAVLDIQGQYRVYTEFYRADAAENTIILINGSLATTASFAQTVRNLHPQFNVVLFDQPYSGKSKPHNRQERLISKETEAHILLELIEHFQADHVMSFSWGGASTLLALAHQPRYVKKAVVSSFSPVINEPMRDYLDRGCQYLAACDRYQVGNLVNDTIGKHLPSLFKRFNYRHVSSLDSHEYAQMHFHINQVLEHDLERALQGARNINIPVLFINGERDEYTTVEDARQFSKHVGRSQFSVIRDAGHFLDMENKTACENTRNVMLGFLK” the value was “failed”.

As for “MRPGAPGPLWPLPWGALAWAVGFVSSMGSGNPAPGGVCWLQQGQEATCSLVLQTDVTRAECCASGNIDTAWSNLTHPGNKINLLGFLGLVHCLPCKDSCDGVECGPGKACRMLGGRPRCECAPDCSGLPARLQVCGSDGATYRDECELRAARCRGHPDLSVMYRGRCRKSCEHVVCPRPQSCVVDQTGSAHCVVCRAAPCPVPSSPGQELCGNNNVTYISSCHMRQATCFLGRSIGVRHAGSCAGTPEEPPGGESAEEEENFV”, the protein production entry is listed as “failed”. With “MRPLISICMIVKNEAHILRQSLASFRKFTEEIIIVDTGSTDDTKEIAKEFTDFVYDFEWTGNFSDARNFAAKHATGKWILAIDADECLEEESYRKLEKQLKSPIEPIQMAQIISFTGEKGRVTTTNQMARVYKNDGTICFRGVIHEQLEAVDKHAIEAGLAEVKIYHYGYMSEIVEKQDKSDRNLRLLEKEVKNNKNSGFVHFNIGQEMNRLGNKKEALKEFSEAFRLRDNNHYIWAKLSAYHISELLEQEKRYDESLAIIEEAKVIWPNVPEFPLKKANILYVNHQLEDAKEIYKSLLENTAIDYQPIVLYEATNFMPHKMLGTIYLEEKDYTRAMTHFSKAYAENSSDYGVMFQMIMLLSKFHQPKEIFAFMERHNFISSTETGLRLLSMTTQQGYAELSELIVQSLTDVYPPVAEATEVKIATIRNVFPVISESAILFGIKEELIDAADLCLWHYENPQLPIERVMKNSDVGEIYDFIFENGPKISKKRYLFVLERAIALGKGEFADYLLALRNVYHDSINSHIADLFFQYDFADIALDFYNIVDADEVTKQGYINLINYLVDADVLDEALAIAERGIDNFSTDFRFYLWAIKIDTENRANRISEAMDEFPNNRYLAKLLDEVTMLQDTVTNNR” the entry was “failed”; with “MRPVLVLLHRYVGLATALFLFLAGLTGSLLAFHHEIDEWLNPGFYAVGEGGERLSPGSLVQRVESRYPRQLVWYMEYPEAGGHPALLATVPREAGAKVEHDVFYLDPVSGEEVGKRLWAACCFQPANLVPWVLEFHHNLTLPGNWGLYLMGGVAMFWFLDCFVGAWLTLPRGRPFWSKWTTAWKIKRGNAYRFNFDLHRAGGLWLWLLLAPVALSSVALNLPSQVFKPLVSLFSPIEPSVYEARGRLPREQLGETRLDYDRTFQLASVEAARLGIAEPIGELYYSFEYNFFGAGFGDHDDPMGKSWLFFHGSDGRLLGQEVAGQGSWGERFYRLQYPIHGGRIAGLPGRIAIAALGLAIAGLSLTGVYIWWRKRRARHWNGR”, “failed”. For “MRPVYFLSDFGLEDPYVAVVKAVLAERAPGPAVVDLAHALPPQDLRRAAYALFEALPYLPEGAVVLAVVDPGVGTARRAVAALGRWTYVGPDNGLFTLAWLLDPPRRAFLLEPPRPRPKAALPGWAPGEATFHGRDVFAPAAAHLALGLPPEGLGPEVPVETLARLPLALTEGPEGEVLTFDRFGNAITTLLRAPVGGFVEVGGRRVPVRRTFGEVPEGAPVAYLGSAGLLEVAVNRGSAREALGLKEGMPVRLL” the value was “not failed”; for “MRQAKTDLAEQIFSATDRLMAREGLNQLSMLKLAKEANVAAGTIYLYFKNKDELLEQFAHRVFSMFMATLEKDFDETKPFFEQYRQMWKNIWYFLQENPTILSNLKQYESLPNFKDICKNIKNCRWDLFCHQAQKAGLLAELSEDILFLLSLKTAINLASDAKFIDFDLKPEILESVIERSWRAIQK”, “not failed”. Regarding “MRQFQRLANDGLKSCPPKSGCPMHILFIGYGKTSQRIAKHLFAQGHQITAVSRHPKPQDFVTHLTQDIHQLNLDQCSPIDWVYVLLAPENSDAQSYKHTYLDSVQPIARALATHPVKRVVVVSSTRVYGQQQAGEIVNDQTIAKPVDQQGAYLLEMEEAWQNAFAEHCTIIRPSGIYGNSISRMVKLAKNTTEYPVIHYSNRIHIEDLARFLAFMTQMPCCQPSYLISDGHPYPLHEIILWFQKQLALPQLVLQSDSVTGKRIVPVNFLTTGFELQAEDCFEIYGNLLRSVDT”, the protein production entry was “failed”.

“MRQVTVGGMRVDLVSEIASLAFDKSWLFANVTDAVIAENRSWLDHRYIEPATGRFILSHHSYLVRAPRWTAIVDTCCGNHKKRPRVPVWNDLNQPYLENMRALGVAPEEVDFVMCTHLHVDHVGWNTRLLDGRWVPTFPNARYLMGREEYRHFEAAHNAAPKSPVNHGSFEDSVLPVVAAGLAEFVETDHRLFEDRDAALRFAPAPGHTAGNMQIHLNGGHDHAVMSGDVIHHPIQCAAPWLSNAADVDPAAAVATRMALLEELADTPSYLLTGHFPAPTAGRVIRHGDTYRFRFED”: the protein production result was “failed”.

Turning to “MRRASQMFDFIGFKEGAMAFLLAFALAGLFTIAFKYVYQWVTPYNEKALIREGNTAAAIALAGALIGYVLPLASALSHTVSLPEFAAWATLAGVIQIAAFTGVRLVALPDVKARIENGEVSVGVYLAGISIAVGLLNAACMTT”, the protein production result was “failed”. For “MRREKTMDTLIRSIMIKSKRKMDAKVAQFGLTTQQARVLGFLNDNAANEIIQKDLQRIFQTRGASITSLIQGLEKKQLISRKPSIRDGREKVVTLTEEGKRIVDEFNESFPREDDKAKKILSADEYKIFIDLLSKIDDNTELEHHHHHH” the value was “not failed”; for “MRREKTMDTLIRSIMIKSKRKMDAKVAQFGLTTQQARVLGFLNDNAANEIIQKDLQRIFQTRGASITSLIQGLEKKQLISRKPSLRDGREKVVTLTKEGKDIVDEFNASFPREDDKAKKILSADEYKTFIELLSKIDDQTD”, “failed”.

In the case of “MRRFGKWLGRVLLAALCAALVIGLWKGEEIKRLMAVNSLFEPDLIVRNFSNMDAAFLHTPVGEAQTPPSALPDGPKMTLPDGTAAWLAARKVTSLVVLSNGQLVHESYHLGTKAEDRRISWSLAKSYISALTGIVLAQGSIASLDDPVTRYAPRLKGGAYDGATVRNVLNMATGVTFDEDYTDYDSDINRMGRVLALGGLMDDFAAGLTQTFARPGSEWQYVSIDTHVLGMVIRAATGRSVVDLMGAHIITPLGLESTPYYLTDGAGVAFALGGLNMTTRDYARFGQMMAQHGAWNGRQIVPKNWVIDSTTASAPTGPDEYGYGYQWWMPRDARPREYMGRGIYGQYLYINEEQGVVVALTAADAAFRDADVQQQNIALFREIADRVQGDANGKR”, the protein production entry is “failed”. With “MRRFLLSAAKILVSAALLYLALRKTDFAALAARIDATSFGWLAAAVAATIFQLFVNAVRWRAIGACCEAPLTTGRSMRYAMIGSFFNQTLPSAIGGDAVRVWLLARAGAGWRAATYSVFVDRATGLIALSAIIFVTLPWTLRLIDNADGRLGLMLLDFAALGAGVVFLTLPFLRFGLLDRIWATRHMRGCSEVALKALSSPKSAVILIATSLIIPILAVVIAWCVARAIESPSSFVQLFELVPPIMLITMIPISIAGWGVREASMGLAFGYAGLNPSDGVAVSLLFGAVYFVVGGIGGLIWIMSAEKAAKGDAPIEVPE”, the protein production result is recorded as “failed”.

For “MRRLLVALCLLTVVLGSTSALAQARNQLGPLCTTETTPADKMVDACTKIIALKVFKGEQLATVYFWRAVGWNKKGDYAKVITDATEAIRLQPSQAVYNLRGSAYYDKGDYDIAIADFDDALKLGPPSGIIFHNRGNAWRGKHDYTKAIADYDMSIKADPKSAFSFQNRGISKEALGDLDGALADINQAIRLDPTLPQPLINRTSIWRAKGDLDRAIADGSEAIRLAEKKPPANIMTPPNSVLISGYTHRALAYEAKGDYARARDDYKATLAIVASDAGSKANQATAKVRLSLVSDAAVPIPRDAPSPTTQPTAAPAPQQTGAASAPSPAPAVRGTRMALIIGNGAYAHVKALPNPPNDARAVAKSLRDIGFTVSEGVDLDRAAMQKMTRDFLRDAARAQVAVVYYAGHGVQVDGRNYLIPVDVELKPGTAMTEAMIDMDTIMAGLDDQVRTNILIFDACRNNPMAQQVASAAANRGIEGASGLAAPTSLGAGATLGAGTLIAFATAPGQVALDGDGANSPFSAALSRHIGTLGLEVQQMLTRVRAEVVSTTKNKQVPWSNSSLLGEVYLAEK”, the protein production result was “failed”. “MRRPAVTAGPAHVLQRPVKPDLSAILHCVQNCTGCRTVRQARPQRGDQIRVTFLCILSSVFPNDQTDHLRSVRPSGFRYRPRHLNSGLAPLPGTLLEEVSMRNPVLTVTPLALTLILSAAGAQSLQAAQSLYDQGKWQEAATAAAALKTSDGYALAAEATTNGAGLVADSQKKALFAKAQDYAKQAIAADKNNPEAYFELARAQGRLAQFSGILQSLGMAKDMKQNLDTAIKLKPNMASAYVALGLWNANLDSKGAIARSATGASKAQVVPNFEKAIALEANTPIHRVEYANALLLQGNKAGARAQLEKAAGMGADNFWEKRDVATAQAMLAKLK”: the protein production entry is “failed”. With “MRRQPSLTLRSTLAFALVAMLTVSGAGLYLYQSIEQTVLQRSDHAVLARLDHFRKLLRYDLTMDNLKGSPQLFENMLDSEEDIFIIGEPGKPPVVSVNPQHAPLPDLPTVAQDQPLRVDDLRSGMSLQGVPLRAAAAQVMSNGVEVRLQAAHLMVKEMAMLASFRQSIYIAVALAFLITAVLGYVLLRRGLRPLRKMAAHAAAITPASLHKRLDSHDTPVELQQLSNAFNAMLDRIDDGYRRLMQFSADLAHEIRTPVGSLMGHCQVALRQDRSVDEYQALLASNLEELERISRLVESILFLARADEAQAALERQPLDLHDELQRVAGYFEGLADERNLKLSPSGRGTLLADPILLRRALSNLVANAIRYADEDSEILIRVVTVDQQWRIEVENQGPVLPHATLARLFDRFYRGDASRHERSDSNGLGLAIVTAIMHLHGGCVEVAQPAVGRICFSLVFPAA” the entry was “failed”; with “MRRRKYPWKQADILIHRYCRRLTTGQRLAVIAVAFALFMAGCLYMLLSSLLGFGETGGGLQIEHIRPLDIKPEKDTTIHFKDYYDYGHSENQDTVRLVC”, “failed”.

Source of the values: a protein production outcome set (Wang et al. 2014).
